{"source": "patent US20250186491A1", "about": "“COMPOSITIONS AND METHODS FOR TREATING CANCER WITH CHIMERIC TIM RECEPTORS IN COMBINATION WITH INHIBITORS OF POLY (ADP-RIBOSE) POLYMERASE” (CERO THERAPEUTICS HOLDINGS, INC., priority 2020, published 2025)", "molecules": {"B1": {"name": "Tim-4: phosphatidylserine receptor typically expressed on antigen presenting cells (protein, UniProt Q96H15 25-378, looked up)", "T-cell immunoglobulin and …": "ETVVTEVLGHRVTLPCLYSSWSHNSNSMCWGKDQCPYSGCKEALIRTDGMRVTSRKSAKYRLQGTIPRGDVSLTILNPSESDSGVYCCRIEVPGWFNDVKINVRLNLQRASTTTHRTATTTTRRTTTTSPTTTRQMTTTPAALPTTVVTTPDLTTGTPLQMTTIAVFTTANTCLSLTPSTLPEEATGLLTPEPSKEGPILTAESETVLPSDSWSSVESTSADTVLLTSKESKVWDLPSTSHVSMWKTSDSVSSPQPGASDTAVPEQNKTTKTGQMDGIPMSMKNEMPISQLLMIIAPSLGFVLFALFVAFLLRGKLMETYCSQKHTRLDYIGDSKNVLNDVQHGREDEDGLFTL"}, "B2": {"name": "CTX137: Tim4 binding domain-CD28 transmembrane-CD28 costimulatory domain-DAP12, SEQ ID NO: 197 (protein)", "chain": "MSKEPLILWLMIEFWWLYLTPVTSETVVTEVLGHRVTLPCLYSSWSHNSNSMCWGKDQCPYSGCKEALIRTDGMRVTSRKSAKYRLQGTIPRGDVSLTILNPSESDSGVYCCRIEVPGWFNDVKINVRLNLQRASTTTHRTATTTTRRTTTTSPTTTRQMTTTPAALPTTVVTTPDLTTGTPLQMTTIAVFTTANTCLSLTPSTLPEEATGLLTPEPSKEGPILTAESETVLPSDSWSSVESTSADTVLLTSKESKVWDLPSTSHVSMWKTSDSVSSPQPGASDTAVPEQNKTTKTGQMDGIPMSMKNEMPISQFWVLVVVGGVLACYSLLVTVAFIIFWVRSKRSRLLHSDYMNMTPRRPGPTRKHYQPYAPPRDFAAYRSYFLGRLVPRGRGAAEAATRKQRITETESPYQELQGQRSDVYSDLNTQRPYYK", "modifications": "Tim4 binding domain-CD28 transmembrane-CD28 costimulatory signaling domain-DAP12 signaling domain, amino acids 1-24 are signal peptide (CTX137)"}, "B3": {"name": "CTX140: Tim4 binding domain-CD28 hinge-CD28 transmembrane-CD28 costimulatory domain-DAP12, SEQ ID NO: 195 (protein)", "chain": "MSKEPLILWLMIEFWWLYLTPVTSETVVTEVLGHRVTLPCLYSSWSHNSNSMCWGKDQCPYSGCKEALIRTDGMRVTSRKSAKYRLQGTIPRGDVSLTILNPSESDSGVYCCRIEVPGWFNDVKINVRLNLQRASTTTHRTATTTTRRTTTTSPTTTRQMTTTPAALPTTVVTTPDLTTGTPLQMTTIAVFTTANTCLSLTPSTLPEEATGLLTPEPSKEGPILTAESETVLPSDSWSSVESTSADTVLLTSKESKVWDLPSTSHVSMWKTSDSVSSPQPGASDTAVPEQNKTTKTGQMDGIPMSMKNEMPISQIEVMYPPPYLDNEKSNGTIIHVKGKHLCPSPLFPGPSKPFWVLVVVGGVLACYSLLVTVAFIIFWVRSKRSRLLHSDYMNMTPRRPGPTRKHYQPYAPPRDFAAYRSYFLGRLVPRGRGAAEAATRKQRITETESPYQELQGQRSDVYSDLNTQRPYYK", "modifications": "Tim4 binding domain-CD28 hinge-CD28 transmembrane-CD28 costimulatory signaling domain-DAP12 signaling domain, amino acids 1-24 are signal peptide(CTX140)"}}, "key": {"[1]": {"conditions": "low phosphatidylserine density, cited from earlier work"}, "[2]": {"system": "Kuramochi-mCh-NLS cells", "experiment": "Co-culture of chimeric Tim receptor T cells with Niraparib-treated Kuramochi cells (IncuCyte)", "type": "cell-based, human", "method": "Kuramochi cells expressing a mCherry-NLS plasmid were incubated for 20 hours with 25, 12.5, or 6.25 μM Niraparib. The next day the Niraparib concentration was reduced to 0.52 μM and co-cultures of primary human CD4+ and CD8+ T cells expressing chimeric Tim receptor construct 13A (TIM4 binding domain-CD28 transmembrane domain—CD28 costimulatory domain-CD3ζ signaling domain) (SEQ ID NO 162) were added to the Kuramochi culture. […] The number of Kuramochi cells expressing mCherry-NLS was monitored via IncuCyte.\nKuramochi cells expressing a mCherry-NLS plasmid were incubated for ˜20 hours with 1.56 μM Niraparib. The next day, media were removed from cells and replaced with fresh media with 0 μM Niraparib, and primary human CD4+ and CD8+ T cells expressing chimeric Tim receptor CTX140 (Tim4 binding domain-CD28 hinge-CD28 transmembrane-CD28 costimulatory domain-DAP12)(SEQ ID NO: 195) or CTX156 (tEGFR control) were added to the Kuramochi culture. The number of Kuramochi cells expressing mCherry-NLS was monitored via IncuCyte.\n21500 Kuramochi ovarian cancer cells expressing an mCherry-NLS plasmid were plated on day 0.25, 12.5, or 6.25 μM Niraparib were added to cell culture ˜4 hours later. ˜20 hours after initial Niraparib dose, primary human CD4+ and CD8+ T cells expressing chimeric Tim receptor CTX137 (Tim4 binding domain-CD28 transmembrane-CD28 costimulatory domain-DAP12) (SEQ ID NO: 197) or CTX156 (tEGFR control) and maintenance dose of 0.52 μM Niraparib were added.\nT cell transduction and culturing: CD4 and CD8 T cells were isolated from frozen healthy donor PBMCs using Miltenyi CD4+ and CD8+ isolation kits. CD4 and CD8 T cells were then mixed in a 1:1 ratio and incubated overnight in a flat bottom 24 well plate in OpTmizer medium supplemented with cell serum replacement, IL-Glutamine, GlutaMAX, and IL-2, IL-7, and IL-15 cytokines, and TransAct diluted 1:50. […] T cells were counted and supplemented with fresh medium approximately every two days thereafter. […]"}}, "note": "Entries after “also recorded” stand apart in the source; their conditions may differ. Where two headings read alike, the source gives them in different places."}
{"molecule": "B1", "values": [{"measurement": "binding at Low PtdSer", "setting": "[1]", "result": "Minimal"}, {"measurement": "binding at Low PtdSer", "setting": "[1]; listed as Tim4 binding domain", "result": "binds minimally"}]}
{"molecule": "B2", "values": [{"measurement": "Kuramochi cell numbers", "setting": "[2]; Niraparib 25 μM pre-incubation + 0.52 μM maintenance, control CTX156, FIG. 6", "result": "reduces Kuramochi cell numbers"}, {"measurement": "number of Kuramochi cells in culture vs mock transduction control", "setting": "[2]; Niraparib 25, 12.5 or 6.25 μM pre-treatment ~20 h, then 0.52 μM, CD4+/CD8+ T cells, FIG. 4, FIG. 7", "result": "reduces Kuramochi cell numbers; also recorded: significantly reduce the number of Kuramochi cells"}]}
{"molecule": "B3", "values": [{"measurement": "number of Kuramochi cells in culture vs mock transduction control", "setting": "[2]; Niraparib 1.56 μM pre-incubation ~20 h, then 0 μM, control CTX156, FIG. 5", "result": "reduces Kuramochi cell numbers; also recorded: significantly reduce the number of Kuramochi cells"}]}
